Results published in patent US20240043504A1 (published 2024).
Substitutions are numbered along the chain they refer to.

B1: mAb10936 (antibody, V domains shown)
VH: QVQLVESGGGVVQPGRSLRLSCAASGFTFRNYGMHWVRQAPGKGLEWVSVIWYDGSNRYYADSVKGRFTISRDTSKNTLYLQMNSLRAEDTAVYYCARDPPITGTTGGDAFDIWGQGTMVTVSS
VL: not shown
B2: mAb10982 (antibody, V domains shown)
VH: EVQLVESGGGLVQPGGSLRLSCAASGLTVSSNYMSWVRQAPGKGLEWVSVIYSGGTTYYADSVKGRFTISRHNSKNTLSLQMNSLRAEDTAVYYCARGEGANYYGMDVWGQGTTVTVSS
VL: QSVLTQPPSVSGAPGQRVTISCTGSSSNIGTGYDVHWYQQLPGTAPKLLIYGNSNRPSGVPDRFSGSKSGTSASLAITGLQAEDEADYYCQSYDSSLSGYVVFGGGTKLTVLG
B3: mAb10986 (antibody, V domains shown)
VH: EVQLVESGGGLVQPGGSLRLSCAASEFTVSSNYMSWVRQAPGKGLEWVSVIYSGGSTFYADSVKGRFTISRDNSKNTLYLQMNSLRAEDTAVYYCARALPYGDLHFDYWGQGTLVTVSS
VL: B2 VL with S54T, G99D, Y100S, V101Y, G105T, L109V
B4: mAb10985 (antibody, V domains shown)
VH: EVQLVESGGGLVQPGRSLRLSCAASGFTFDDYAMHWVRQAPGKGLEWVSGISWNRGSIGYADSVKGRFTISRDNAKNSLYLQMSSLRAEDTALYYCAKDGERWDSVVVPSARNGMDVWGQGTTVTVSS
VL: B2 VL with T31A, Y100S, V101Y, G105T, L109V
B5: mAb10930 (antibody, V domains shown)
VH: EVQLVESGGGLVQPGRSLRLSCAASGFTFDDYAMYWVRQAPGKGLEWVSGISWNSGSIGYADSVKGRFTISRDNAKNSLYLQMNSLRAADTALYYCAKDKDWNSRGYYYYGMDVWGQGTTVTVSS
VL: not shown
B6: mAb10923 (antibody, V domains shown)
VH: QVQLVQSGAEVKKPGASVKVSCKASGYTFINYYIHWVRQAPGQGLEWMGWINPNSGGTNYAQKFQGRVTMTRDTSISTAYMELSRLRSDDTAVYYCAIITIFGVVTWFDPWGQGTLVTVSS
VL: not shown
B7: mAb10969 (antibody, V domains shown)
VH: QVQLVESGGGVVQPGRSLRLSCAASGFTFSSYAMHWVRQAPGKGLEWVAVISYDGSNKYYADSVKGRFTISRDNSKNTLYLQMNSLRAEDTAVYYCARDGRTITMVRGVIDDAFDIWGQGTMVTVSS
VL: not shown
B8: mAb10934 (antibody, V domains shown)
VH: not shown
VL: DIQMTQSPSSLSASVGDRVTITCQASQDIWNYINWYQQKPGKAPKLLIYDASNLKTGVPSRFSGSGSGTDFTFTISSLQPEDIATYYCQQHDDLPPTFGQGTKVEIKR
B9: mAb10938 (antibody, V domains shown)
VH: EVQLVESGGGLVQPGGSLRLSCAVSGFTVSSNYMSWVRQAPGKGLEWVSLIYSGGSTFYADSVKGRFTISRHNSKNTLYLQMNSLRAEDTAVYYCAREGGYSYDYNYWGQGTLVTVSS
VL: B8 VL with W30R, I33L, K55E, S65I, H91Y, D93N, P96I, K103R, V104L
B10: mAb10954 (antibody, V domains shown)
VH: EVQLVESGGGLVQPGGSLRLSCAASGITVSSNYMSWVRQAPGKGLEWVSLIYSGGSTYYADSVKGRFTISRDNSKNTLYLQMNSLRVEDTAVYYCARDHGMAAAGYNYWGQGTLVTVSS
VL: B8 VL with W30N, N31K, I33L, K55E, S76N, I83F, Y87F, H91Y, D93N, T97A
B11: mAb10967 (antibody, V domains shown)
VH: EVQLVESGGGLVQPGGSLRLSCAASGFTVSSNYMSWVRQAPGKGLEWVSVIYPGGSTFYADSVKGRFTISRDNSKNTLYLQMNSLRAEDTAVYYCARDQRDFAWGQGTLVTVSS
VL: B8 VL with W30S, I33L, K55E, S77G, H91Y, D93N, K103R, V104L
B12: mAb10935 (antibody, V domains shown)
VH: EVQLVESGGGLVQPGGSLRLSCAASGFTVSSNYMSWVRQAPGKGLEWVSLIYSGGSTYYADSVKGRFTISRHNSKNTLYLQMNSLRSEDTAVYYCARVPLGDYYYGMDVWGQGTTVTVSS
VL: B8 VL with W30N, N31K, I33L, K55E, H91S, D93N, P96L, Q100G
B13: mAb10966 (antibody, V domains shown)
VH: EVQLVESGGGLVQPGGSLRLSCAASGLTVSSNYMSWVRQAPGKGLEWVSVIYSGGSTFYADSVKGRFTISRDNSKNTLYLQMNSLRPEDTAVYYCAREGRIAATGYGMDVWGQGTTVTVSS
VL: not shown
B14: mAb10971 (antibody, V domains shown)
VH: EVQLVESGGGLIQPGGSLRLSCAASGVTVSSNYMSWVRQAPGKGLEWVSVIYSGGSTFYSDSVKGRFSISRDNSKNTLYLQMNSLRAEDTAVYYCARDLYYYGMDVWGQGTTVTVSS
VL: DIQLTQSPSFLSASVGDRVTITCRASQGISTYLAWYQQKPGKAPKLLIYAASTLQSGVPSRFSGSGSGTEFTLTISSLQPEDFATYYCQQLDSYPGLTFGGGTKVEIKR
B15: mAb10989 (antibody, V domains shown)
VH: QVQLVQSGAEVKKPGASVKVSCKASGYIFTGYYMHWVRQAPGQGLEWMGWINPNSGGANYAQKFQGRVTLTRDTSITTVYMELSRLRFDDTAVYYCARGSRYDWNQNNWFDPWGQGTLVTVSS
VL: QSALTQPASVSGSPGQSITISCTGTSSDVGTYNYVSWYQQHPGKAPKLMIFDVSNRPSGVSDRFSGSKSGNTASLTISGLQAEDEADYYCSSFTTSSTVVFGGGTKLTVLG
B16: mAb10939 (antibody, V domains shown)
VH: EVQLVESGGGLVQPGGSLRLSCAASGLTVSSNYMNWVRQVPGKGLEWVSVIYSGGSKFYVDSVKGRFTISRHNSKNTLYLQMNSLRPEDTAVYYCTRDAQYYGMDVWGQGTTVTVSS
VL: DIQMTQSPSSLSASVGDRVTITCRASQSISTYLHWYQQKPGEAPKLLIYAASSLQSGVPSRFSGSGSGTDFTLTISSLQPEDFATYYCQQSYSTPPEIFGQGTKLEIKR
B17: mAb10932 (antibody, V domains shown)
VH: EVQLVESGGGLVQSGGSLRLSCAASGLTVSSNYMSWVRQAPGKGLEWVSVIYSGGSTFYSDSVKGRFTISRHNSKNTLYLQMNSLRAEDTAVYYCARARGDAFDIWGQGTMVTVSS
VL: not shown
B18: mAb10920 (antibody, V domains shown)
VH: QVQLVESGGGVVQPGRSLRLSCAASGFTFSYYGMHWVRQAPGKGLEWVAVIWYDGSNKFYADSVKGRFTISRDNSKNTLYLQMNSLRAEDTAVYYCAAARPGYYYGMDVWGQGTTVTVSS
VL: DIQMTQSPSSLSASVGDRVTITCRASQGISNYLAWFQQKPGKAPNSLIYAASSLQRGVPSKFSGSGSGTDFTLTISSLQPEDFATYYCQQYNSYPRTFGQGTKVEIKR
B19: mAb10913 (antibody, V domains shown)
VH: EVQLVESGGGLVQPGGSLRLSCAASGFTFRNYEMNWVRQAPGKGLEWVSYITSSGSTMYYADSVKGRFTISRDNAKNSLYLQMNSLRAEDTAVYYCARDGFYYYYAMDVWGQGTTVTVSS
VL: QSVLTQPPSVSAAPGQKVTISCSGSSSNIGNNYVSWYQQLPGTAPKLLIYDNNKRPSGIPDRFSGSKSGTSATLGITGLQTGDEADYYCGTWDSSLSVGRVFGTGTKVTVLG
B20: mAb10964 (antibody, V domains shown)
VH: QVQLQESGPGLVKPSETLSLTCTVSGGSINNYYWIWIRQPPGKGLEWIGYIYHSGSTNYNPSLKSRVTISVDTSKNQFSLKVSSVTAADTAVYYCANMVRGVYEDDYWGQGTLVTVSS
VL: DIQMTQSPSSLSASVGDRVTITCRASQSISNYLNWYQQKPGKAPKLLIFAASSLRSGVPSRFSGSGSGTDFTLTISSLHPEDFATYYCQQNYNTPLTFGPGTKVDIKR
B21: mAb10984 (antibody, V domains shown)
VH: EVQLVESGGGLVQPGGSLRLSCAASGLTVNRNYMSWVRQAPGKGLEWVSLIYSGGSTYYADSVKGRFTISRDNSKNTLYLQMNSLRLEDTAVYYCARGELGIPYGMDVWGQGTTVTVSS
VL: QSVLTQPPSVSAAPGQKVTISCSGSSSNIGNNYVSWYQQLPGTAPKLLIYDNNKRPSGIPDRFSGSKSGTSATLGITGLQTGDEADYYCGTWDSSLSAGVFGGGTKLTVLG
B22: mAb10921 (antibody, V domains shown)
VH: EVQLVESGGGLVQPGGSLRLSCAASGITVSSNYMSWVRQAPGKGLEWVSVIYSGGSTFYADSVKGRFTISRHNSKNTLYLQMNSLRAEDTAVYYCARERNFDAFDIWGQGTMVTVSS
VL: DIQMTQSPSSVSASVGDRVTITCRASQGISSWLAWYQQKPGKAPKLLIYAASSLQSGVPSRFSGSGSGTDFTLTISSLQPEDFATYYCQQANSFPLFTFGPGTKVDIKR
B23: mAb10937 (antibody, V domains shown)
VH: QITLKESGPTLVKPTQTLTLTCTFSGFSLSTNVVGVGWIRQPPGKALEWLALIYWNDDKRYSPSLKSRLTITKDTSKNQVVLTMTNMDPVDTATYYCAHGPTGDYFDYWGQGTLVTVSS
VL: not shown

Biological target: SARS-CoV-2 RBD extracellular domain expressed with a C-terminal mouse IgG2a (SARS-COV-2 RBD-mFc) (SARS-CoV-2)

| Binder | Kd | koff | kon | t1/2 |
| --- | --- | --- | --- | --- |
| B1 | ≤ 15.3 pM | ≤ 1e-05 s⁻¹ | 652000 M⁻¹ s⁻¹ | ≥ 19.2 h |
| B2 | 54.4 pM | 1.69e-05 s⁻¹ | 310000 M⁻¹ s⁻¹ | 11.4 h |
| B3 | ≤ 15.8 pM |  |  | ≥ 19.2 h |
| B4 | 11.7 pM |  |  | 15.2 h |
| B5 | ≤ 43.1 pM | ≤ 1e-05 s⁻¹ | 232000 M⁻¹ s⁻¹ | ≥ 19.2 h |
| B6 | 43.5 pM | 2.83e-05 s⁻¹ | 651000 M⁻¹ s⁻¹ | 6.79 h |
| B7 | 49.6 pM |  |  | 12.7 h |
| B8 | 83.2 pM |  |  | 1.64 h |
| B9 | ≤ 32.2 pM |  |  | ≥ 19.2 h |
| B10 | ≤ 17.3 pM |  |  | ≥ 19.2 h |
| B11 | ≤ 25.1 pM |  |  | ≥ 19.2 h |
| B12 | ≤ 26.1 pM | ≤ 1e-05 s⁻¹ | 383000 M⁻¹ s⁻¹ | ≥ 19.2 h |
| B13 | ≤ 24.9 pM |  |  | ≥ 19.2 h |
| B14 | ≤ 25.3 pM | ≤ 1e-05 s⁻¹ | 395000 M⁻¹ s⁻¹ | ≥ 19.2 h |
| B15 |  |  |  | 2.07 h |
| B16 | 38.7 pM | 1.15e-05 s⁻¹ | 299000 M⁻¹ s⁻¹ | 16.7 h |
| B17 | ≤ 41.3 pM | ≤ 1e-05 s⁻¹ | 242000 M⁻¹ s⁻¹ | ≥ 19.2 h |
| B18 | 416 pM |  |  | 0.658 h |
| B19 | 244 pM | 0.000152 s⁻¹ | 623000 M⁻¹ s⁻¹ | 1.27 h |
| B20 | ≤ 7 pM |  |  | ≥ 19.2 h |
| B21 | ≤ 24.9 pM |  |  | ≥ 19.2 h |
| B22 | ≤ 37.5 pM | ≤ 1e-05 s⁻¹ | 266000 M⁻¹ s⁻¹ | ≥ 19.2 h |
| B23 | 114 pM | 7.28e-05 s⁻¹ | 639000 M⁻¹ s⁻¹ | 2.64 h |
